Measured values from publication PMC11083479, “A Multi-Faceted Binding Assessment of Aptamers Targeting the SARS-CoV-2 Spike Protein”.
Read-outs that look alike come from different tables or passages of the source.

Legend:
[1] = biological target: SARS-CoV-2 trimeric spike, WT, C-tag (SARS-CoV-2 (WT), UniProt P0DTC2); test: BLI; BLI: PBS pH 7.4, 1 mM MgCl2 ([…]; flow cytometry 25 C ([…]; settings: protein: recombinant; tags: C-tag
[2] = biological target: SARS-CoV-2 spike RBD, WT, His-tag (SARS-CoV-2 (WT), UniProt P0DTC2 319-541); test: as above
[3] = biological target: T1, SARS-CoV-2 trimeric spike, WT, His-tag (SARS-CoV-2 (WT), UniProt P0DTC2); test: ELONA; settings: protein: recombinant; tags: 8xHis (flow cytometry); His
[4] = biological target: SARS-CoV-2 spike S1, WT, His-tag (SARS-CoV-2 (WT), UniProt P0DTC2 16-685); test: BLI; settings: protein: recombinant; tags: His
[5] = biological target: T1, SARS-CoV-2 trimeric spike, WT, His-tag; test: flow cytometry; 37 C; non-binding control; settings: protein: recombinant, tags: 8xHis (flow cytometry)
[6] = biological target: T2, SARS-CoV-2 trimeric spike, WT, His-tag (SARS-CoV-2 (WT), UniProt P0DTC2 14-1208); settings: protein: recombinant, tags: 8xHis (flow cytometry), chain copies: 3, label: with or without biotin, SA-ATTO647N in flow cytometry
[7] = biological target: SARS-CoV-2 spike RBD, WT, C-tag (SARS-CoV-2 (WT), UniProt P0DTC2 319-591); test: BLI; BLI: PBS pH 7.4, 1 mM MgCl2 ([…]; flow cytometry 25 C ([…]; settings: protein: recombinant; tags: C-tag; label: with or without biotin; SA-ATTO647N in flow cytometry
[8] = biological target: SARS-CoV-2 spike RBD, WT, His-tag (SARS-CoV-2 (WT), UniProt P0DTC2 319-541); test: as above; settings: protein: recombinant; tags: His; label: with or without biotin; SA-ATTO647N in flow cytometry
[9] = biological target: SARS-CoV-2 spike S1, WT, His-tag (SARS-CoV-2 (WT), UniProt P0DTC2 16-685); test: BLI; settings: protein: recombinant; tags: His; label: with or without biotin; SA-ATTO647N in flow cytometry
[10] = biological target: T1, SARS-CoV-2 trimeric spike, WT, His-tag; test: BLI; settings: protein: recombinant; tags: 8xHis (flow cytometry); His
[11] = biological target: SARS-CoV-2 trimeric spike, WT, C-tag (SARS-CoV-2 (WT), UniProt P0DTC2 16-1208); settings: protein: recombinant; tags: C-tag; chain copies: 3; label: with or without biotin; SA-ATTO647N in flow cytometry
[12] = biological target: T3, ACE2, His-tag (UniProt Q9BYF1 18-740); test: ELONA; settings: protein: recombinant; tags: His; label: with or without biotin; SA-ATTO647N in flow cytometry
[13] = biological target: T2, SARS-CoV-2 trimeric spike, WT, His-tag; test: ELONA; abolished by 0.1 mg/mL dextran sulfate; settings: protein: recombinant, tags: 8xHis (flow cytometry), chain copies: 3, label: with or without biotin, SA-ATTO647N in flow cytometry
[14] = biological target: T3, ACE2, His-tag; test: ELONA; 200 nM aptamer; BLI: PBS pH 7.4, 1 mM MgCl2 (MSA aptamers: 50 mM HEPES pH 7.4, 6 mM KCl, 150 mM NaCl, 2.5 mM CaCl2, 2.5 mM MgCl2), 0.1 mg/mL BSA, 0.02% Tween-20; ELONA 25 C in; settings: protein: recombinant; tags: His; label: with or without biotin; SA-ATTO647N in flow cytometry
[15] = biological target: chemokine CCL17, untagged (human, UniProt Q92583 24-94); test: as above; settings: protein: recombinant; tags: none; label: with or without biotin; SA-ATTO647N in flow cytometry
[16] = biological target: SARS-CoV-2 spike RBD, WT, C-tag (SARS-CoV-2 (WT), UniProt P0DTC2 319-591); test: BLI; BLI: PBS pH 7.4, 1 mM MgCl2 ([…]; flow cytometry 25 C ([…]
[17] = biological target: T1, SARS-CoV-2 trimeric spike, WT, His-tag; test: flow cytometry; settings: protein: recombinant, tags: 8xHis (flow cytometry)

T3 sequence (Q9BYF1 18-740): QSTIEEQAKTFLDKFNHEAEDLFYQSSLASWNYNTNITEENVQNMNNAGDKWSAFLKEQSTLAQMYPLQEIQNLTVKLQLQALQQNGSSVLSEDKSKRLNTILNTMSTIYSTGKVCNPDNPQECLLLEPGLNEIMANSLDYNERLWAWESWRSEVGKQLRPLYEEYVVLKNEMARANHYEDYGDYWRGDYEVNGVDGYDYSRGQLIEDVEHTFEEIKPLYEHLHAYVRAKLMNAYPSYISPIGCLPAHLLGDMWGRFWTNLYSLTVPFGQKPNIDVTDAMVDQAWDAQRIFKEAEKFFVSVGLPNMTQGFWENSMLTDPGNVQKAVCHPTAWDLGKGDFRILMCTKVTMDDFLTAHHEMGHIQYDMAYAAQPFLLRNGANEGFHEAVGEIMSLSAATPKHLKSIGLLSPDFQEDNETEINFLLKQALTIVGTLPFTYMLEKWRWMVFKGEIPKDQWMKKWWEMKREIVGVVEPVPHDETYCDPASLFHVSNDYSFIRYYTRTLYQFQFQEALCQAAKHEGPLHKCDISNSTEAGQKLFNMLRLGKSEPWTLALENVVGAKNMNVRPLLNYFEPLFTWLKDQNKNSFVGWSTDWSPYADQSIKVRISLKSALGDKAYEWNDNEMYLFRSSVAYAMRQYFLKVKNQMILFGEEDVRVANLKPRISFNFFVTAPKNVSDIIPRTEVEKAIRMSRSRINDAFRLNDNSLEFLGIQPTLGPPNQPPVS
Sequence of chemokine CCL17, untagged (Q92583 24-94): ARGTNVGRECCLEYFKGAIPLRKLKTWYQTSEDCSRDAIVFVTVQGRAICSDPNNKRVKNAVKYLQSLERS

Binder | binding result [1] | binding result [2] | binding result [4] | binding result [7] | binding result [9] | other results
CAACCCATGGTAGGTATTGCTTGGTAGGGATAGTGGGCTTG (ssDNA) [SP6.41] | binds | no binding | no binding |  |  | binding result [3]: binds
CCCATGGTAGGTATTGCTTGGTAGCGATAGTGGG (ssDNA) [SP6.34C] |  |  |  |  |  | binding result [5]: no binding
CoV2-RBD-1C (ssDNA) DNA: CAGCACCGACCTTGTGCTTTGGGAGTGCTGGTCCAAGGGCGTTAATGGACA |  |  |  | no binding | binds | binding result [6]: binds; binding result [8]: binds
Aptamer-1 (ssDNA) DNA: ATCCAGAGTGACGCAGCATCGAGTGGCTTGTTTGTAATGTAGGGTTCCGGTCGTGGGTTGGACACGGTGGCTTAGT | no binding | binds | binds |  |  | binding result [10]: binds
CGCAGCACCCAAGAACAAGGACTGCTTAGGATTGCGATAGGTTCGG (ssDNA) [CoV2-6C3] |  |  |  | no binding | binds | binding result [6]: binds; binding result [8]: binds; binding result [11]: binds
nCoV-S1-A2 (ssDNA) DNA: AGCAGCACAGAGGTCAGATGGCAGCTAAGCAGGCGGCTCACAAAACCATTCGCATGCGGCCCTATGCGTGCTACCGTGAA |  | no binding |  |  |  | 
CoV2-RBD-4C (ssDNA) DNA: ATCCAGAGTGACGCAGCATTTCATCGGGTCCAAAAGGGGCTGCTCGGGATTGCGGATATGGACACGT |  |  |  | no binding | binds | binding result [6]: binds; binding result [8]: binds; binding result [12]: binds
TCCGGTTAATTTATGCTCTACCCGTCCACCTACCGGA (ssDNA) [MSA1-T3] | no binding | no binding |  |  |  | binding result [10]: binds
CTTCCACGGGTTTGGCGTCGGGCCTGGCGGGGGGATAGTGCGGTGGAAG (ssDNA) [MSA5-T4] |  |  |  | no binding | binds | binding result [13]: binds; binding result [11]: no binding; binding result [14]: no binding; binding result [15]: no binding
Aptamer-2 (ssDNA) DNA: ATCCAGAGTGACGCAGCAATTACCGATGGCTTGTTTGTAATGTAGGGTTCCGTCGGATTGGACACGGTGGCTTAGT | no binding | binds | binds |  |  | binding result [10]: binds
RBD-PB6 (XNA, 2'-F-modified RNA) RNA: GGGGCCACCAACGACAUUUGUAAUUCCUGGACCGAUACUUCCGUCAGGACAGAGGUUGAUAUAAAUAGUGCCCAUGGAUCC | binds | binds | binds |  |  | binding result [16]: binds; binding result [17]: binds
